T1: papain (Carica papaya, UniProt P00784)
T1 construct: purchased Wako Pure Chemical Industries, Ltd
T1 sequence (P00784 134-345): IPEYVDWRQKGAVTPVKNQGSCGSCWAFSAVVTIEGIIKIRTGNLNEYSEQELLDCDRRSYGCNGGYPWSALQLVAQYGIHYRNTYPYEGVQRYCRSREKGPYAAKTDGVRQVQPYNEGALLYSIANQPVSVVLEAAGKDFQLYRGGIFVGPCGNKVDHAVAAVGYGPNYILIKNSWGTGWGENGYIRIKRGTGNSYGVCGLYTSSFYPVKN


Assays:
Assay type in all cases: biochemical
[1] = target: T1, papain; experiment: reverse zymography with papain on gelatin-containing SDS-polyacrylamide gel; details: 12.5% SDS-polyacrylamide gel with 0.1% gelatin, papain digestion pH 5.5, 37° C., 10 hours
Excerpt: The inventor used a technique “reverse zymography” as a method of detecting protease inhibitory substance and detected a protease inhibitory substance located on the gel of SDS-polyacrylamide gel electrophoresis. The reverse zymography is based on a technique opposite of the normal zymography, and the basic principle of the reverse zymography is as follows. That is, a sample containing protease inhibitory substance is applied onto SDS-polyacrylamide gel containing gelatin, and electrophoresis is performed, followed by soaking the gel in a protease solution to degrade protein in the gel. Protease activity is inhibited on a portion where an inhibitory substance is present and gelatin of the portion avoids being degraded by protease and is stained with staining solution, which enables detection of inhibitory substance.
Using total milk protein and bovine lactoferrin (manufactured by Morinaga Milk Industry Co., Ltd.) as samples, electrophoresis (hereinafter, SDS-polyacrylamide gel electrophoresis is sometimes abbreviated to SDS-PAGE) was conducted with 12.5% SDS-polyacrylamide gel containing 0.1% of gelatin. After electrophoresis, the gel was washed by immersing it in a 2.5% Triton X-100 solution for 45 minutes, and further washed by repeating three times the operation of immersing the gel in distilled water for 45 minutes. […]

[2] = target: T2, cathepsin B (Homo sapiens, UniProt P07858); experiment: cysteine protease inhibitory activity (Z-Phe-Arg-MCA fluorescence, method of Barrett et al.); details: pH 5.5, 37° C., 10 minutes
T2 construct: purchased Wako Pure Chemical Industries, Ltd
Protocol: (§1) Inhibitory activities against cysteine proteases including papain, cathepsin B, cathepsin L and cathepsin S (these proteases are available from Wako Pure Chemical Industries, Ltd.) were determined using commercially available bovine lactoferrin (manufactured by Morinaga Milk Industry Co., Ltd.) as a test sample. The inhibitory activity was measured with reference to the method by Barrett et al. (“Methods in Enzymology,” Vol. 80, p 535-561, 1981) as described below. Namely, Z-Phe-Arg-MCA (final concentration of […]: manufactured by Peptide Institute, Inc.) was added as a substrate to 0.1 M acetic acid buffer solution (pH 5.5) in which sample was dissolved at each concentration. Then, cysteine protease (a protease selected from papain, cathepsin B, cathepsin L and cathepsin S in the present test: manufactured by Wako Pure Chemical Industries, Ltd.) solution (final concentration: 15 units/ml) was added, the whole solution was mixed and the reaction was carried out at 37° C. for 10 minutes. Subsequently, fluorescence intensity (excitation wavelength: 370 nm, emission wavelength: 460 nm) of AMC (7-Amino-4-Methyl-Coumarin) released from the digested substrate was measured with a fluorescence spectrometer (manufactured by Hitachi, Ltd.).

[3] = target: T3, cathepsin L (Homo sapiens, UniProt P07711); experiment: as above; details: pH 5.5, 37° C., 10 minutes
T3 construct: purchased Wako Pure Chemical Industries, Ltd
Protocol: as §1

[4] = target: T4, cathepsin S (Homo sapiens, UniProt P25774); experiment: as above; details: pH 5.5, 37° C., 10 minutes
T4 construct: purchased Wako Pure Chemical Industries, Ltd
Protocol: as §1

[5] = target: T1, papain; experiment: as above; details: pH 5.5, 37° C., 10 minutes
Protocol: as §1

T3 sequence (P07711 114-333, species assumed): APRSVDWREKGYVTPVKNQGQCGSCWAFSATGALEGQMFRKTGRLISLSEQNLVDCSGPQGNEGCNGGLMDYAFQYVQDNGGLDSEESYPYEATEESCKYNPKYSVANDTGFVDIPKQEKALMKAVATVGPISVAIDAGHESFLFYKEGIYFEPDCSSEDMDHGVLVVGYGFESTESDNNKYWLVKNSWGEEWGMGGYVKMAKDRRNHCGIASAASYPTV
T4 sequence (P25774 115-331, species assumed): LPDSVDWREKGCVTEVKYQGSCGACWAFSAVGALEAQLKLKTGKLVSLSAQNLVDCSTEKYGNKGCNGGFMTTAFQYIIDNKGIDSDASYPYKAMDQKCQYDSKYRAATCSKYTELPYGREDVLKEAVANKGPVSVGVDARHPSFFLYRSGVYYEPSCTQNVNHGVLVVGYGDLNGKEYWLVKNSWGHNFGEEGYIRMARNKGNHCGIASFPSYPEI

Molecule	band in reverse zymography using papain [1]	inhibition rate at each concentration (%) ([2]; inhibitor 10^−4M)	inhibition rate at each concentration (%) ([2]; inhibitor 10^−5M)	inhibition rate at each concentration (%) ([3]; inhibitor 10^−6M)	inhibition rate at each concentration (%) ([4]; inhibitor 10^−4M)	inhibition rate at each concentration (%) ([4]; inhibitor 10^−5M)	inhibition rate at each concentration (%) ([5]; inhibitor 10^−6M)	inhibition rate at each concentration (%) ([3]; inhibitor 10^−4M)	inhibition of cysteine protease activity ([5]; inhibitor 10^−3 M)
bovine lactoferrin: commercially available bovine lactoferrin (Morinaga Milk Industry), 78 kDa, SEQ ID No. 2 (protein, listed as Bos taurus, sig_peptide (1)...(19) Lactoferrin) MKLFVPALLSLGALGLCLAAPRKNVRWCTISQPEWFKCRRWQWRMKKLGAPSITCVRRAFALECIRAIAEKKADAVTLDGGMVFEAGRDPYKLRPVAAEIYGTKESPQTHYYAVAVVKKGSNFQLDQLQGRKSCHTGLGRSAGWIIPMGILRPYLSWTESLEPLQGAVAKFFSASCVPCIDRQAYPNLCQLCKGEGENQCACSSREPYFGYSGAFKCLQDGAGDVAFVKETTVFENLPEKADRDQYELLCLNNSRAPVDAFKECHLAQVPSHAVVARSVDGKEDLIWKLLSKAQEKFGKNKSRSFQLFGSPPGQRDLLFKDSALGFLRIPSKVDSALYLGSRYLTTLKNLRETAEEVKARYTRVVWCAVGPEEQKKCQQWSQQSGQNVTCATASTTDDCIVLVLKGEADALNLDGGYIYTAGKCGLVPVLAENRKSSKHSSLDCVLRPTEGYLAVAVVKKANEGLTWNSLKDKKSCHTAVDRTAGWNIPMGLIVNQTGSCAFDEFFSQSCAPGADPKSRLCALCAGDDQGLDKCVPNSKEKYYGYTGAFRCLAEDVGDVAFVKNDTVWENTNGESTADWAKNLNREDFRLLCLDGTRKPVTEAQSCHLAVAPNHAVVSRSDRAAHVKQVLLHQQALFGKNGKNCPDKFCLFKSETKNLLFNDNTECLAKLGGRPTYEEYLGTEYVTAIANLKKCSTSPLLEACAFLTR	positive band								
human lactoferrin: commercially available human lactoferrin (Morinaga Milk Industry), SEQ ID No. 1 (protein, listed as Homo Sapiens, sig_peptide (1)...(19) Lactoferrin) MKLVFLVLLFLGALGLCLAGRRRRSVQWCAVSQPEATKCFQWQRNMRKVRGPPVSCIKRDSPIQCIQAIAENRADAVTLDGGFIYEAGLAPYKLRPVAAEVYGTERQPRTHYYAVAVVKKGGSFQLNELQGLKSCHTGLRRTAGWNVPIGTLRPFLNWTGPPEPIEAAVARFFSASCVPGADKGQFPNLCRLCAGTGENKCAFSSQEPYFSYSGAFKCLRDGAGDVAFIRESTVFEDLSDEAERDEYELLCPDNTRKPVDKFKDCHLARVPSHAVVARSVNGKEDAIWNLLRQAQEKFGKDKSPKFQLFGSPSGQKDLLFKDSAIGFSRVPPRIDSGLYLGSGYFTAIQNLRKSEEEVAARRARVVWCAVGEQELRKCNQWSGLSEGSVTCSSASTTEDCIALVLKGEADAMSLDGGYVYTAGKCGLVPVLAENYKSQQSSDPDPNCVDRPVEGYLAVAVVRRSDTSLTWNSVKGKKSCHTAVDRTAGWNIPMGLLFNQTGSCKFDEYFSQSCAPGSDPRSNLCALCIGDEQGENKCVPNSNERYYGYTGAFRCLAENAGDVAFVKDVTVLQNTDGNNNEAWAKDLKLADFALLCLDGKRKPVTEARSCHLAMAPNHAVVSRMDKVERLKQVLLHQQAKFGRNGSDCPDKFCLFQSETKNLLFNDNTECLARLHGKTTYEKYLGPQYVAGITNLKKCSTSPLLEACEFLRK		almost completely inhibited	more than 80%	completely inhibited	almost completely inhibited	more than 80%	completely inhibited		
transferrin: commercially available bovine transferrin (Nihon Pharmaceutical Co., Ltd.), SEQ ID No. 4 (protein, listed as Bos taurus, sig_peptide (1)...(19) Transferrin) MRPAVRALLACAVLGLCLADPERTVRWCTISTHEANKCASFRENVLRILESGPFVSCVKKTSHMDCIKAISNNEADAVTLDGGLVYEAGLKPNNLKPVVAEFHGTKDNPQTHYYAVAVVKKDTDFKLNELRGKKSCHTGLGRSAGWNIPMAKLYKELPDPQESIQRAAANFFSASCVPCADQSSFPKLCQLCAGKGTDKCACSNHEPYFGYSGAFKCLMEGAGDVAFVKHSTVFDNLPNPEDRKNYELLCGDNTRKSVDDYQECYLAMVPSHAVVARTVGGKEDVIWELLNHAQEHFGKDKPDNFQLFQSPHGKDLLFKDSADGFLKIPSKMDFELYLGYEYVTALQNLRESKPPDSSKDECMVKWCAIGHQERTKCDRWSGFSGGAIECETAENTEECIAKIMKGEADAMSLDGGYLYIAGKCGLVPVLAENYKTEGESCKNTPEKGYLAVAVVKTSDANINWNNLKDKKSCHTAVDRTAGWNIPMGLLYSKINNCKFDEFFSAGCAPGSPRNSSLCALCIGSEKGTGKECVPNSNERYYGYTGAFRCLVEKGDVAFVKDQTVIQNTDGNNNEAWAKNLKKENFEVLCKDGTRKPVTDAENCHLARGPNHAVVSRKDKATCVEKILNKQQDDFGKSVTDCTSNFCLFQSNSKDLLFRDDTKCLASIAKKTYDSYLGDDYVRAMTNLRQCSTSKLLEACTFHKP		more than 30%						more than 30%	completely inhibited
